Measurements as given in patent US20090291083A1, “BARB4 TARGET, ANTIBODY DESIGNATED BARB4, BARB4 RELATED ANTIBODIES, AND METHODS OF MAKING AND USING SAME” (PATRYS LIMITED, priority 2008, published 2009).

Key:
[1] = test system: PANC-1; experiment: MTT cell proliferation assay (Table 3); type: cell-based, human
Experimental: (§1) BARB4 was also evaluated for inhibition of proliferation of other cancer cell lines, including BxPC-3, COLO 205, H460, MDA-MB-231 and MIAPaCa-2 cells, as well as HT-29, HCT-116, BxPC-3, PANC-1, A549, PC-3 and HCT116 cells. In brief, various human cancer cell lines obtained from the American Type Culture Collection (ATCC) were established using standard in vitro culture methods and ATCC recommended media in 175 cm2 BD tissue culture treated flasks. In particular, MDAMB-231 cultures were incubated in a humidified 37° C., 100% air incubator, and BxPC-3, COLO 205, H460 and MIAPaCa-2 cultures were incubated in a humidified 37° C., 5% CO2, 95% air incubator. Cultures were sub-cultivated regularly to maintain log phase growth. All cell lines were brought up from cryopreservation using the original recommended ATCC media type and supplements. Cell line specific seeding densities were based on historical data from MIR Preclinical Services for growth over a 72 hr period.
(§2) The anti-proliferative activity of BARB4 and cisplatin was evaluated using the MTT cell proliferation assay (ATCC catalog #30-1010K). The assay is based on the reduction of yellow tetrazolium MTT (3-(4,5-dimethylthiazolyl-2)-2,5-diphenyltetrazolium bromide) by metabolically active cells forming purple formazan crystals. The purple formazan is solubilzed with detergent and quantified spectrophotometrically at 570 nm (MTT Cell Proliferation Assay, ATCC 30-1010K; Van de Loosdrecht, et al. J. Immunol. Methods 174:311 (1994): Ferrari, et al. J. Immunol. Methods 131:165 (1990); Gerlier, D., and N. Thomasset. J. Immunol. Methods 94:57 (1986); Alley, et al. Cancer Res. 48:589 (1988); and Mosmann, T. J. Immunol. Methods 65:55 (1983)). The MTT Cell Proliferation Assay Kit from ATCC contains ready to use MTT and detergent solutions.
(§3) Cells in the log phase of growth were seeded into 96-well culture plates in 0.1 mL of complete medium in all wells except column 12 which was reserved for media-only control (blank) and allowed to attach overnight at 37° C. Compounds were diluted in complete culture media and added to each well in a volume of […] for a final 1:2 dilution from the 2× dilution reservoir concentration. At 24 and 48 hr post-treatment, 100 μl of media was removed and 0.01 mL of MTT reagent was added to each well. The plates were returned to the incubator for four hours. Detergent reagent (0.1 mL) was then added and the plates incubated overnight at 37° C. in the dark to solubilize the formazan crystals. The absorbance at 570 nm was measured with a SpectraMAX® Plus plate reader (Molecular Devices Corporation) at 24 and 48 hr post-detergent addition. Absorbance values were converted to percent of control and then plotted against test agent concentrations for IC50 calculations using SoftMax® Pro v. 5.2 (Molecular Devices Corporation). Plots of percent of control vs. compound (BARB4 or cisplatin) concentration were analyzed using the 4 parameter equation to obtain IC50 values and other parameters that describe the sigmoidal curve along with an R2 value.
(§4) Using the same MTT assay as described for the BxPC-3, COLO 205, H460, MDA-MB-231 and MIAPaCa-2 cells, proliferation of HT-29, HCT-116, BxPC-3, PANC-1, A549, PC-3 and HCT116 cells was evaluated and IC50 (μg/ml) was calculated at 24, 48 and 72 hours. The cell culture protocol for passaging adherent cells used is substantially as described above for the BxPC-3, COLO 205, H460, MDA-MB-231, and MIAPaCa-2 cells. The following were the cell line propagation conditions:
(§5) Atmosphere. 5% CO2, humidified Media Supplements Used: * FBS—Fetal Bovine Serum (Gibco 10082-147; lot #1354986), * PSG—Penicillin, Streptomycin, L-Glutamine Solution (CellGro 30-009-CI), * 0.1M Na Pyruvate (CellGro 25-000-CI), * 1.0M HEPES (CellGro 25-060-CI), AND * 45% Glucose (CellGro 25-037-CI). Seeding Densities* for IC50 Assays: A549 2.5×10^3; PC-3 6.0×10^3; HT-29 12×10^3; HCT-116 8.0×10^3; BxPC-3 12×10^3; and PANC-1 6.0×10^3 cells.

[2] = test system: A549; experiment: MTT cell proliferation assay (Table 3); type: cell-based, human
Experimental: as §1, §2, §3, §4, §5

[3] = test system: HT-29; experiment: MTT cell proliferation assay (Table 3); type: cell-based, human
Experimental: as §1, §2, §3, §4, §5

[4] = test system: HCT-116; experiment: MTT cell proliferation assay (Table 3); type: cell-based, human
Experimental: as §1, §2, §3, §4, §5

[5] = test system: PC-3; experiment: MTT cell proliferation assay (Table 3); type: cell-based, human
Experimental: as §1, §2, §3, §4, §5

[6] = test system: BxPC-3; experiment: MTT cell proliferation assay (Table 3); type: cell-based, human
Experimental: as §1, §2, §3, §4, §5

[7] = test system: human pancreas carcinoma cells (BXPC-3); experiment: Glycosidase assay on cytospins, immunohistochemical staining; type: binding; conditions: BXPC-3 cytospins, biotinylated BARB4 100 μg/ml
Experimental: To determine whether O- or N-linked sugar residues are potentially involved in BARB4 binding to tumor cells, cytospin preparations of BXPC-3 cancer cells were incubated with N- or O-glycosidase. In brief, 4×10^5 human pancreas carcinoma cells (BXPC-3) were resuspended in 1 ml Dulbecco's phosphate buffered saline pH 7.2 (Sigma, Taufkirchen, Germany) and incubated with 10 U/ml N-glycosidase or 40 mU/ml O-glycosidase (both Roche Applied Science, Mannheim, Germany) for 2 hours at 37° C. Untreated cells in Dulbecco's phosphate buffered saline served as control. Cytospins were prepared and immunohistochemical staining with biotinylated BARB4 antibody (100 μg/ml) was performed.
After treatment of the cells, binding of BARB4 was evaluated by immunohistochemical staining (FIG. 5). […] BARB4 could therefore bind to an eptiope that includes or consists of a carbohydrate moiety that is removed or modified by O-glycosidase treatment.

B1: BARB4: human IgG antibody produced by hybridoma DSMZ Deposit No. DSM ACC2876; heavy chain SEQ ID NOs:1, 3, 5, 7, light chain SEQ ID NO:9 (antibody, V domains shown)
VH: QVQLVESGGGVVQPGRSLRLSCAASGFRFTTHGMHWVRQAPGKGLEWVAVISYNGRNKYYADYVNGRFTISRDDSRDTVFLQMNSLRPEDTAMYYCAKVRGDGYGDYGYFDYWGHGTLVSVSS
VL: QSALTQPRSVSGSPGQSVTISCTGTYNYVSWYQQHPGKAPKLMIFDVSRRSSGVPDRFSGSKSGNTASLTISGLQAEDEADYYCCSYGGTYLYVFGTGTTVTVLGQ
For B1, the “IC50 24 hours” value ([1]; 24 hours) was 91.4 µg/mL, the “IC50 48 hours” value ([1]; 48 hours) was 337.1 µg/mL and the “IC50 72 hours” value ([1]; 72 hours) was 353.2 µg/mL. The “IC50 24 hours” value ([2]; 24 hours) was 98.9 µg/mL, the “IC50 48 hours” value ([2]; 48 hours) was 111.2 µg/mL and the “IC50 72 hours” value ([2]; 72 hours) was 122.2 µg/mL. For the same molecule, the “IC50 24 hours” value ([3]; 24 hours) was 399.5 µg/mL, the “IC50 48 hours” value ([3]; 48 hours) was 300.1 µg/mL and the “IC50 72 hours” value ([3]; 72 hours) was 228.8 µg/mL. The “IC50 24 hours” value ([4]; 24 hours) was 24.8 µg/mL, the “IC50 48 hours” value ([4]; 48 hours) was 77.3 µg/mL and the “IC50 72 hours” value ([4]; 72 hours) was 95.2 µg/mL. The “IC50 24 hours” value ([5]; 24 hours) was 57.2 µg/mL, the “IC50 48 hours” value ([5]; 48 hours) was 64.2 µg/mL and the “IC50 72 hours” value ([5]; 72 hours) was 155.7 µg/mL. The “IC50 24 hours” value ([6]; 24 hours) was 88.9 µg/mL, the “IC50 48 hours” value ([6]; 48 hours) was 362.8 µg/mL and the “IC50 72 hours” value ([6]; 72 hours) was 511.4 µg/mL. The “surface binding on cells treated with N-glycosidase” value ([7]; 10 U/ml N-glycosidase 2 hours 37° C.) was “clear reduction of surface binding” and the “binding on cells treated with O-glycosidase” value ([7]; 40 mU/ml O-glycosidase 2 hours 37° C.) was “no effect”.
